How the values were obtained:
[1] = molecular target: T1, membrane hIL-36R (human, UniProt Q9HB29 20-575); assay: cell-based or functional assay
T1 sequence: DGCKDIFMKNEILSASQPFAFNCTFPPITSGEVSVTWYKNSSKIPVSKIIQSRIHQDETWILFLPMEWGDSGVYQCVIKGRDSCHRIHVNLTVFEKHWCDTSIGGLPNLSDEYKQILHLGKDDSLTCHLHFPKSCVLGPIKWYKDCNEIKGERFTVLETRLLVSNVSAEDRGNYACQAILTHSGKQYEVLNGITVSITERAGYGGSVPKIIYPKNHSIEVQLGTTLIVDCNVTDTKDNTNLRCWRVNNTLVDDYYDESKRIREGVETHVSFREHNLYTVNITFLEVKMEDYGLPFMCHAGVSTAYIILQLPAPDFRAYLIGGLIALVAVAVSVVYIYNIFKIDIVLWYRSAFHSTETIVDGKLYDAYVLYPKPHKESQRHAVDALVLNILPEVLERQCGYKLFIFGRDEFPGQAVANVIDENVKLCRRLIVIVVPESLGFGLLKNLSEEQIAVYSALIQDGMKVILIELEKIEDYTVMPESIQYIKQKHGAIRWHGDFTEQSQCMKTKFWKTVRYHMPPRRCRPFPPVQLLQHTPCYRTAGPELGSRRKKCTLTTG

[2] = molecular target: T2, Recombinant hIL-36R protein (Acrobio, Cat #IL2-H52H6) (human, UniProt Q9HB29 20-335); assay: SPR (Biacore T200, 25 C), antibody captured by Fc, hIL-36R analyte
T2 construct: Bought soluble protein; also called recombinant human IL-36R protein
T2 sequence: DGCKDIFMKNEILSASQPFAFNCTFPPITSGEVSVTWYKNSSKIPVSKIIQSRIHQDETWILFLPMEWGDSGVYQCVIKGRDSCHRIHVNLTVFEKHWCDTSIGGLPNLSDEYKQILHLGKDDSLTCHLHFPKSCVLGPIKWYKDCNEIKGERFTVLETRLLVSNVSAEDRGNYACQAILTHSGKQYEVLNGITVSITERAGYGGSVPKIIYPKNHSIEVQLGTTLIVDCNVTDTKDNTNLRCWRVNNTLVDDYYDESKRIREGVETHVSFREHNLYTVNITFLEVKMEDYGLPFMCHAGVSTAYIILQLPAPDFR

[3] = molecular target: T3, recombinant hIL-36R-his (human, UniProt Q9HB29 20-337); assay: ELISA on coated recombinant hIL-36R-his, HRP anti-hIgG
T3 construct: Residues 1-337 (extracellular domain) are stated for the IL-36R-his used as immunogen; The range includes the signal peptide; no cleavage site is stated; also called recombinant hIL36R protein; recombinant human IL-36R-his protein; not shown: His tag
T3 sequence: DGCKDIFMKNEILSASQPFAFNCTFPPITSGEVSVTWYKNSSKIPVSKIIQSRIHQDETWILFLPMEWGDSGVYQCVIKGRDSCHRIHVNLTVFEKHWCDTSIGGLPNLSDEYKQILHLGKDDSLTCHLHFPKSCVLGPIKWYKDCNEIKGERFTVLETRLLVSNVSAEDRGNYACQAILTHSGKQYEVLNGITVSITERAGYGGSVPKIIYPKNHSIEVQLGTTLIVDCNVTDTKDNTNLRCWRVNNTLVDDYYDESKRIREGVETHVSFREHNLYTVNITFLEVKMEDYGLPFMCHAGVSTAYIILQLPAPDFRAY

[4] = molecular target: T4, recombinant hFcRn-his/B2M heterodimer protein (Acrobio, Cat #FCM-H82W4) (human, UniProt P55899 24-297; P61769 21-119); assay: BLI (Gator) at pH 6.0, hFcRn-his/B2M on anti-his sensor, antibody analyte
T4 construct: Bought heterodimer
T4 sequence (P55899 24-297 limits assumed, chain 1 of 2): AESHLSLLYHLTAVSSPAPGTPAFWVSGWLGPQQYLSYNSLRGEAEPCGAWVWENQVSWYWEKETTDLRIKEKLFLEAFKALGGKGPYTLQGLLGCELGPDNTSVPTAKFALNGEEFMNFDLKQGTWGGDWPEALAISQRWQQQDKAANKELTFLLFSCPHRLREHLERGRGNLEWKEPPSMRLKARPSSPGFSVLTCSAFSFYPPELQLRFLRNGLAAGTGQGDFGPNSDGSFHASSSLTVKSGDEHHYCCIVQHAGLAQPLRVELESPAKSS
T4 sequence (P61769 21-119 limits assumed, chain 2 of 2): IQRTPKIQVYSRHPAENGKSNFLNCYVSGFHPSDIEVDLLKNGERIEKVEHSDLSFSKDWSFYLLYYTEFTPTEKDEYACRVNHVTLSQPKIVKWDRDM

[5] = molecular target: T5, membrane mouse IL-36R (mouse, UniProt Q9ERS7 22-574); assay: flow cytometry on HEK293 cells transfected with mouse IL-36R
T5 construct: whole, on cells; also called mouse IL-36R on HEK293 cells transfected with pcDNA3.1-musIL36R
T5 sequence (looked up): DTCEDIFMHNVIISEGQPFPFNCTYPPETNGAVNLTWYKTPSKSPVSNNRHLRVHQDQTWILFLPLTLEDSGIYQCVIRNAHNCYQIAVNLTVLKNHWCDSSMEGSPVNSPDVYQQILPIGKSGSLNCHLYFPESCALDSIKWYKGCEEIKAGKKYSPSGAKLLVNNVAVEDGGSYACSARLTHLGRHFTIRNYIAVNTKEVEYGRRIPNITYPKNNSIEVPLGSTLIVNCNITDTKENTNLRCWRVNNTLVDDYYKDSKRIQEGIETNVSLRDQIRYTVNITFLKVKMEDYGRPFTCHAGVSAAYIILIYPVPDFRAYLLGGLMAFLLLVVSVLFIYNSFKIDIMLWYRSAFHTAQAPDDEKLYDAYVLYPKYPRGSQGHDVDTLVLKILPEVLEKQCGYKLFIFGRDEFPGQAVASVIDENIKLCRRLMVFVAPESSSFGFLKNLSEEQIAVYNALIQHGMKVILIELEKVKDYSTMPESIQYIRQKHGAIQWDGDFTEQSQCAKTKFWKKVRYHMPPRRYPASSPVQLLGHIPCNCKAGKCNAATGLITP

[6] = molecular target: T1, membrane hIL-36R; assay: flow cytometry on HEK293 cells transfected with hIL-36R, FITC anti-hIgG
[7] = molecular target: T6, Recombinant hIL1R1 protein (human, UniProt P14778 18-332, limits assumed); assay: ELISA on coated hIL1R1
T6 sequence (looked up): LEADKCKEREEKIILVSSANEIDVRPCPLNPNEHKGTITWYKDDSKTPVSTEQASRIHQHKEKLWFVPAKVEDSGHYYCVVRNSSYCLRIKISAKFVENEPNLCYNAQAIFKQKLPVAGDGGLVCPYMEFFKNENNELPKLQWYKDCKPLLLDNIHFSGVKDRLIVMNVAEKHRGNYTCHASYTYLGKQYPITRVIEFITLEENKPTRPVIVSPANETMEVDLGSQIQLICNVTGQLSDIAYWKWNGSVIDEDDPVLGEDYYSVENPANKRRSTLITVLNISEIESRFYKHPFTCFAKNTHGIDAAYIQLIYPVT

[8] = molecular target: T2, Recombinant hIL-36R protein (Acrobio, …); assay: BLI (Gator)
[9] = molecular target: T1, membrane hIL-36R; assay: cell-based or functional assay; remark: listed apart in the source

B1: 5F7-2a8 (antibody, human IgG4 S228P, kappa)
heavy: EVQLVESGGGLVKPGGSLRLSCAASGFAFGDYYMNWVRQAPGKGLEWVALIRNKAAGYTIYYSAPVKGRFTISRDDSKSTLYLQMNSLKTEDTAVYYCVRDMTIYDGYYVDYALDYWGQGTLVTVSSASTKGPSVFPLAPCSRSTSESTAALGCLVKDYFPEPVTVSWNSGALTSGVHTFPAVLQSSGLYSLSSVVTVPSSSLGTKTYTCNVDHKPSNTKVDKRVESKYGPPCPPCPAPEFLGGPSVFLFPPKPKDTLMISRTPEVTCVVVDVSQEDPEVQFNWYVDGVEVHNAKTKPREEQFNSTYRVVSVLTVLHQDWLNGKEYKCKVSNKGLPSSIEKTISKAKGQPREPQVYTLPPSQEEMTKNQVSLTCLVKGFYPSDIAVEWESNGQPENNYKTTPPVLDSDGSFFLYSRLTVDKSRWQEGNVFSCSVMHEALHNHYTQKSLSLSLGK
light: DIVMTQSPSSVSASVGDRVTITCRASRNINIWLSWYQQKPGKAPKLFIYKASNLHTGVPSRFSGSGSGTDFTLTISSLQPEDFATYYCLQSQSYPLTFGQGTKLEIKRTVAAPSVFIFPPSDEQLKSGTASVVCLLNNFYPREAKVQWKVDNALQSGNSQESVTEQDSKDSTYSLSSTLTLSKADYEKHKVYACEVTHQGLSSPVTKSFNRGEC
notes: also called 5F7-2a8-WT; 5F7-WT
- IC50, IL-36α induced IL-6 release in HEK cells [1]: 0.11 mg/L
- IC50, IL-36α induced IL-8 release in A431 cells [1]: 0.195 mg/L
- IC50, IL-36α induced IL-8 release in HDF cells [1]: 0.00696 mg/L
- IC50, IL-36α induced IL-8 release in HEK cells [1]: 0.129 mg/L
- IC50, IL-36α induced TNF-a release in HEK cells [1]: 0.0535 mg/L
- IC50, IL-36β induced IL-6 release in HEK cells [1]: 0.0188 mg/L
- IC50, IL-36β induced IL-8 release in A431 cells [1]: 0.111 mg/L
- IC50, IL-36β induced IL-8 release in HEK cells [1]: 0.0481 mg/L
- IC50, IL-36β induced TNF-a release in HEK cells [1]: 0.0235 mg/L
- IC50, IL-36γ induced IL-6 release in HEK cells [1]: 0.0446 mg/L
- IC50, IL-36γ induced IL-8 release in A431 cells [1]: 0.00877 mg/L
- IC50, IL-36γ induced IL-8 release in HEK cells [1]: 0.0326 mg/L
- IC50, IL-36γ induced TNF-a release in HEK cells [1]: 0.00526 mg/L
- Kd [2]: 1.52 nM
- koff [2]: 4.48e-05 s⁻¹
- kon [2]: 29500 M⁻¹ s⁻¹
- EC50 [3]: 0.00947 mg/L
- Kd [4]: 168 nM
- koff [4]: 0.0507 s⁻¹
- kon [4]: 301000 M⁻¹ s⁻¹
- binding result [5]: no binding
- EC50 [6]: 0.146 mg/L
- binding result [7]: no binding
- Kd [8]: < 0.1 nM
- kon [8]: 47100 M⁻¹ s⁻¹
- IC50, IL-36R reporter assay: inhibition of ligand induced luminescence in Jurkat-IL36R-IL1Racp-NFkB-luc cells [9]: 0.0237 mg/L
